Measurements taken from article PMC2132938 (The Journal of Cell Biology, 1999).
Read-outs that look alike come from different tables or passages of the source. One block for each binder: values may come before it.

Tests used:
[1] = target: T1, Ran (recombinant human wild-type Ran, charged with GTP or GDP) (human, UniProt P62826 1-216); assay: co-IP
[2] = target: T1, Ran (recombinant human wild-type Ran, …); assay: co-IP; remark: listed apart in the source

- binding result [1]: binds
B1: transportin (human transportin/karyopherin β2, recombinant) (natural protein)
chain: MEYEWKPDEQGLQQILQLLKESQSPDTTIQRTVQQKLEQLNQYPDFNNYLIFVLTKLKSEDEPTRSLSGLILKNNVKAHFQNFPNGVTDFIKSECLNNIGDSSPLIRATVGILITTIASKGELQNWPDLLPKLCSLLDSEDYNTCEGAFGALQKICEDSAEILDSDVLDRPLNIMIPKFLQFFKHSSPKIRSHAVACVNQFIISRTQALMLHIDSFIENLFALAGDEEPEVRKNVCRALVMLLEVRMDRLLPHMHNIVEYMLQRTQDQDENVALEACEFWLTLAEQPICKDVLVRHLPKLIPVLVNGMKYSDIDIILLKGDVEEDETIPDSEQDIRPRFHRSRTVAQQHDEDGIEEEDDDDDEIDDDDTISDWNLRKCSAAALDVLANVYRDELLPHILPLLKELLFHHEWVVKESGILVLGAIAEGCMQGMIPYLPELIPHLIQCLSDKKALVRSITCWTLSRYAHWVVSQPPDTYLKPLMTELLKRILDSNKRVQEAACSAFATLEEEACTELVPYLAYILDTLVFAFSKYQHKNLLILYDAIGTLADSVGHHLNKPEYIQMLMPPLIQKWNMLKDEDKDLFPLLECLSSVATALQSGFLPYCEPVYQRCVNLVQKTLAQAMLNNAQPDQYEAPDKDFMIVALDLLSGLAEGLGGNIEQLVARSNILTLMYQCMQDKMPEVRQSSFALLGDLTKACFQHVKPCIADFMPILGTNLNPEFISVCNNATWAIGEISIQMGIEMQPYIPMVLHQLVEIINRPNTPKTLLENTAITIGRLGYVCPQEVAPMLQQFIRPWCTSLRNIRDNEEKDSAFRGICTMISVNPSGVIQDFIFFCDAVASWINPKDDLRDMFCKILHGFKNQVGDENWRRFSDQFPLPLKERLAAFYGV

- binding result [2]: binds
B2: hGFP–CAS (human CAS fused to hGFP) (natural protein)
chain: MELSDANLQTLTEYLKKTLDPDPAIRRPAEKFLESVEGNQNYPLLLLTLLEKSQDNVIKVCASVTFKNYIKRNWRIVEDEPNKICEADRVAIKANIVHLMLSSPEQIQKQLSDAISIIGREDFPQKWPDLLTEMVNRFQSGDFHVINGVLRTAHSLFKRYRHEFKSNELWTEIKLVLDAFALPLTNLFKATIELCSTHANDASALRILFSSLILISKLFYSLNFQDLPEFFEDNMETWMNNFHTLLTLDNKLLQTDDEEEAGLLELLKSQICDNAALYAQKYDEEFQRYLPRFVTAIWNLLVTTGQEVKYDLLVSNAIQFLASVCERPHYKNLFEDQNTLTSICEKVIVPNMEFRAADEEAFEDNSEEYIRRDLEGSDIDTRRRAACDLVRGLCKFFEGPVTGIFSGYVNSMLQEYAKNPSVNWKHKDAAIYLVTSLASKAQTQKHGITQANELVNLTEFFVNHILPDLKSANVNEFPVLKADGIKYIMIFRNQVPKEHLLVSIPLLINHLQAESIVVHTYAAHALERLFTMRGPNNATLFTAAEIAPFVEILLTNLFKALTLPGSSENEYIMKAIMRSFSLLQEAIIPYIPTLITQLTQKLLAVSKNPSKPHFNHYMFEAICLSIRITCKANPAAVVNFEEALFLVFTEILQNDVQEFIPYVFQVMSLLLETHKNDIPSSYMALFPHLLQPVLWERTGNIPALVRLLQAFLERGSNTIASAAADKIPGLLGVFQKLIASKANDHQGFYLLNSIIEHMPPESVDQYRKQIFILLFQRLQNSKTTKFIKSFLVFINLYCIKYGALALQEIFDGIQPKMFGMVLEKIIIPEIQKVSGNVEKKICAVGITKLLTECPPMMDTEYTKLWTPLLQSLIGLFELPEDDTIPDEEHFIDIEDTPGYQTAFSQLAFAGKKEHDPVGQMVNNPKIHLAQSLHKLSTACPGRVPSMVSTSLNAEALQYLQGYLQAASVTLL
